Source: the DeepSol protein solubility set

Experiment: soluble on expression in E. coli; label from the status in PepcDB or PDB records

Sequence	soluble on expression in E. coli
MASSVLEMIKEEVTCPICLELLKEPVSADCNHSFCRACITLNYESNRNTDGKGNCPVCRVPYPFGNLKPNLHVANIVERLKGFKSIPEEEQKVNICAQHGEKLRLFCRKDMMVICWLCERSQEHRGHQTALIEEVDQEYKEKLQGALRKLMKKAKICDEWQDDLQLQRVDWENQIQINVENVQRQFKGLRDLLDSKENEELQKLKKEKKEVMEKLEESENELEDQTELVRDLISDVEHHLQLSTLEMLQGANCVLRRSQSLSLQQPQSVPQKRKRTFQAPDLKGMLQVYQGLMDIQQYWVHMTLHARNNAVIAINKEKRQIQYRSYNTVPVSEIYHLGVLGYPALSSGKHYWEVDISRSDAWLLGLNDGKCAQPQLHSKEEMGIKKNLHSQIKQNVLFQPKCGYWVIGMKNPSVYNAFDECSITHNSSILVISLPDCPSRVGVFLDRKAGTLSFYDVSNCGALIYRFYDPAFPVEVYPYFNPMKCSEPMTICGPPS	soluble
MASTNTNLQKAIDLASKAAQEDKAGNYEEALQLYQHAVQYFLHVVKYEAQGDKAKQSIRAKCTEYLDRAEKLKEYLKKKEKKPQKPVKEEQSGPVDEKGNDSDGEAESDDPEKKKLQNQLQGAIVIERPNVKWSDVAGLEGAKEALKEAVILPIKFPHLFTGKRTPWRGILLFGPPGTGKSYLAKAVATEANNSTFFSISSSDLVSKWLGESEKLVKNLFQLARENKPSIIFIDEIDSLCGSRSENESEAARRIKTEFLVQMQGVGVDNDGILVLGATNIPWVLDSAIRRRFEKRIYIPLPEAHARAAMFRLHLGSTQNSLTEADFQELGRKTDGYSGADISIIVRDALMQPVRKVQSATHFKKVRGPSRADPNCIVNDLLTPCSPGDPGAIEMTWMDVPGDKLLEPVVSMWDMLRSLSSTKPTVNEQDLLKLKKFTEDFGQEG	soluble
MATASHNIDDILQLKDDTGVITVTADNYPLLSRGVPGYFNILYITMRGTNSNGMSCQLCHDFEKTYHAVADVIRSQAPQSLNLFFTVDVNEVPQLVKDLKLQNVPHLVVYPPAESNKQSQFEWKTSPFYQYSLVPENAENTLQFGDFLAKILNISITVPQAFNVQEEFHHHHHHHHHH	soluble
MATEDAVREALATVNDPEINRPITELGMVKSVEIGADGAVAVAVYLTVSGCPMRDTITQRVSDAVSRVEGVTRVDVELDVMSDEQRKELATALRGGQTEREVPFAKPGSLTRVYAVASGKGGVGKSSVTVNLAASMAADGLKVGVVDADIYGHSVPRMLGADGRPTQVENMIMPPSAHGVKVISIGMFTPGNAPVVWRGPMLHRALQQFLADVYWGDLDVLLLDLPPGTGDIAISVAQLVPNAEILVVTTPQQAAAEVAERAGAIAVQTHQKIVGVVENMSGLPCPHCGEMVDVFGTGGGQTVADGLTRTTGASVPVLGAIPIDVRLREGGDEGKPVVLSDPDSPAGAALRSIAGKLGGRQRGLSGLSLGITPKNKFLEHHHHHH	soluble
MATFPHFGTAAIHVGQEPEQWDMNQVVPPISLSSTYKQDNPGEPKGHDYSRAGNPTRDVLQKNLAALEDAKHCQVFSSGLAATSAIINLLKYGDHIVCSDDVYGGTQRYIRRVAVPNHGLEVDSVDLTDVQNLEKAIKPNTKMVWFESPSNPLLKVVDIAAVVQTAKKANPEIVVVVDNTFMSPYFQRPISLGADVVVHSITKYINGHSDVVMGAVITDNDEFQQHLFFMQLAVGAVPSPFDCFLVNRGLKTLHIRMRAHYENALAVAKYLEANDRIESVLYPALPSHPQHEVHEKQTKGMSGMISFYLKGELQESRAFLSALKVFTLAESLGGYESLAELPSIMTHASVPAETRIVLGITDNLIRISVGIEDLDDLVADLDQALKIAIPKV	not soluble
MATKKDVHDLFLNHVNSNAVKTRKMMGEYIIYYDSVVIGGLYDNRLLVKATKSVRHQLQDNTLVSPYPGAKEMILIPDITEAINLTNLFELIKNDLKN	not soluble
MATLKDIAIEAGVSLATVSRVLNDDPTLNVKEETKHRILEIAEKLEYKTSSARKLQTGAVNQHHILAIYSYQQELEINDPYYLAIRHGIETQCEKLGIELTNCYEHSGLPDIKNVTGILIVGKPTPALRAAASALTDNICFIDFHEPGSGYDAVDIDLARISKEIIDFYINQGVNRIGFIGGEDEPGKADIREVAFAEYGRLKQVVREEDIWRGGFSSSSGYELAKQMLAREDYPKALFVASDSIAIGVLRAIHERGLNIPQDISLISVNDIPTARFTFPPLSTVRIHSEMMGSQGVNLVYEKARDGRALPLLVFVPSKLKLRGTTR	soluble
MATMSRRWNYFTPHYNDEGSIDVLDGKPPYIDLFDPLKQPLFQHLRSMHTEFSTTTADVNTTWEDASSTSSSNKGATIWFNEDAIDKSSRHEIGQSTVTHESEDDRFSFFNAVCTRLNSLQETKNSSETEEHAESPRKEKSSTPYGTDGFAPPPRSTQTNTLKVSNLPKRFESLYKKKRQQVATSDSSGFGSNASDFWSFERYGKSNQGTLERPNRLFTGTNNGFSTLQPKRRGSEAPKMTVELRYENDVPMVAKISANHAQSVTLRYFRHLFGLHYTDNCR	not soluble
MATNFLVGEKIWFHKFKYGDAERRFYEQMNGPVAGASLQEASMILHDIARARENIPKSLAGSLGPGASSGPSGDHSELVVRIASLEVDNQRDLAERAGEELARPLGHSPADPAHVSHAPSGAPGQEASHTSRG	soluble
MATNWGSLLQDKQQLEELARQAVDRALAEGVLLRTSQEPTSSEVVSYAPFTLFPSLVPSALLEQAYAVQMDFNLLVDAVSQNAAFLEQTLSSTIKQDDFTARLFDIHKQVLKEGIAQTVFLGLNRSDYMFQRSADGSPALKQIEINTISASFGGLASRTPAVHRHVLSVLSKTKEAGKILSNNPSKGLALGIAKAWELYGSPNALVLLIAQEKERNIFDQRAIENELLARNIHVIRRTFEDISEKGSLDQDRRLFVDGQEIAVVYFRDGYMPRQYSLQNWEARLLLERSHAAKCPDIATQLAGTKKVQQELSRPGMLEMLLPGQPEAVARLRATFAGLYSLDVGEEGDQAIAEALAAPSRFVLKPQREGGGNNLYGEEMVQALKQLKDSEERASYILMEKIEPEPFENCLLRPGSPARVVQCISELGIFGVYVRQEKTLVMNKHVGHLLRTKAIEHADGGVAAGVAVLDNPYPV	soluble
MATTKPYRVLLYYMYTTIENPEEFAAEHLEFCNSLELKGRILVAKEGINGTCSGTVEQTEKYMEAMNNDPRFDGIVFKIDEADGHAFKKMHVRPRPELVTLRLEDDINPHEITGKYLEPKDFYEAMKQEDTVIIDARNDYEFDLGHFKGAIKPDIESFRELPDWIRENKEVLEGKKILTYCTGGIRCEKFSGWLVREGYEDVSQLHGGIVTYGKDPEVQGELWDGQCYVFDERIAVPVNQKEHVIVGKDHFTGEPCERYVNCSNPECNKKILCSEENEAKYLRACSHECRVSPRNRYVIQHELTEEQVAAALEQIEAGKLEHHHHHH	soluble
MATVHKVGDSTGWTTLVPYDYAKWASSNKFHVGDSLLFNYNNKFHNVLQVDQEQFKSCNSSSPAASYTSGADSIPLKRPGTFYFLCGIPGHCQLGQKVEIKVDPGSSSA	soluble
MATVLIVGRPNVGKSTLFNKLVKKKKAIVEDEEGVTRDPVQDTVEWYGKTFKLVDTCGVFDNPQDIISQKMKEVTLNMIREADLVLFVVDGKRGITKEDESLADFLRKSTVDTILVANKAENLREFEREVKPELYSLGFGEPIPVSAEHNINLDTMLETIIKKLEEKGLDLESKPEITDAIKVAIVGRPNVGKSTLFNAILNKERALVSPIPGTTRDPVDDEVFIDGRKYVFVDTAGLRRKSRVEPRTVEKYSNYRVVDSIEKADVVVIVLDATQGITRQDQRMAGLMERRGRASVVVFNKWDLVVHREKRYDEFTKLFREKLYFIDYSPLIFTSADKGWNIDRMIDAMNLAYASYTTKVPSSAINSALQKVLAFTNLPRGLKIFFGVQVDIKPPTFLFFVNSIEKVKNPQKIFLRKLIRDYVFPFEGSPIFLKFKRSR	soluble
MATYRQRGKKKLWDYRIFNEKSELVASGSGFKTKREAMNEAMRIEQQKLLVNSISSDITLYDLWFEWYSLIIKPSNLAETTKNKYFTRGSVIRKLFGNQKVNKIKHSAYQRKLNTYAEKYTKNHVRRLNSDIKKAIQFAKRDGVLLSDFTDGVVIAGRKFVKDADDKYLHSIFDYKKVISYLENNLDYSNSIVYYLLLVLFKTGLRVGEALALTWDDVNFEDLEIKTYRRFSGDKGTFSPPKTKTSIRTIPISQSLALILRDLKDDQQVMLKNLKIVNMNNQIFYDYRYGVSTNSAINKSLKNVLKILNINSKMTATGARHTYGSYLLAKGVDIWVVARLMGHKDITQLLETYGHVLTEVINKEYETVRSLVS	not soluble
MAVGAPFLYRYSLYNCAYVILNGKVLGIVPKSYIPNYSEFYEKRWFTEGFNIKGLNVDLDFQKEVPFGTDLIFSFKNLKVGFEICEDLWVTIPPSSNLALMGANLICNLSASNELVSKSSYRKSLVQNQSARTMCSYIYSSAGVHESTTDLLFSGHMIIAENGTIIKENNRFKRENDLLTGIVDLFKLDAERIKNISFRNSTFNENNEPRFIPFNLENTEIKNFDREIDKHPFLPKSQYAMEARCEEILNIQAAALAKRLEHTNLKKAVIGISGGLDSTLALLVVVKTFDMLNIPRENIITITMPGFGTTDRTYNNAVTLCKELHCDFREINIVNAALQHFEDIGHDKDIHDVTYENVQARERTQILMDLANKEGGLLIGTGDLSELALGWCTYNGDHMSMYSVNCSIPKTLVRFLVNYFANHEISNDAKEALLDILDTPVSPELEHHHHHH	soluble
MAVSAYFHIPFCAHICHYCDFNKVFAAGQPIDDYLRAMDKEMAWTAAEFGSQLKTLFIGGGTPTVLEPAQLGCLLASIHRHFQFDPQTAEFTVEANPDGLTKEKLAILRDAGVNRLSLGVQTFDDQLLQTIGRTHRRGDVIRAVALAREVGFQNISIDVMYGLPGQTLEQFTADLEAAFSLHVPHLSAYSLILEPRTIFYNEWRKGRLRLPGEEMEAEMYEAAMEQMAAAGYRQYEISNYALPGFESRHNLTYWNNEEYYGIGAGAHSYIDGVRRANIGPIRHYISAIERGQWPHRDVRRLTTREQMEEEMFLGLRKTEGVSKACFRQKFGRDLHDIFGAAIRREIENGRLEETETHIRLTKRGKLLGNEVFAAFLGEM	not soluble
MAWPDLDPPRLAERPLSLQEALFVLEAPPEALPALAEAAIRVKEYFFGRRLKLVRLLNVKSGFCPEDCAYCAQSARSQAAIARYPLLSLEEILERAEEAQRLSARRFCLVAALRGPTPKVLERLGEAAQAIKARFPLELCASLGLLEEGMAEALKAAGFDYYNHNLNTVPSLYPRIATTHTYQDRLWTLKRAREAGLKLCSGVILGMGEGPKEVYEMALALRELGVESLPVNFLLPIPGTPLGDGRTVAGLTPERALKALILFRLLNPKAELRASAGRERYLGPYEPLAFRMVNSIFLQGYLTQPGSPWERDRALWESLDLDVEEGACG	soluble
MAYDGLFTKKMVESLQFLTTGRVHKINQPDNDTILMVVRQNRQNHQLLLSIHPNFSRLQLTTKKYDNPFNPPMFARVFRKHLEGGIIESIKQIGNDRRIEIDIKSKDEIGDTIYRTVILEIMGKHSNLILVDENRKIIEGFKHLTPNTNHYRTVMPGFNYEAPPTQHKINPYDITGAEVLKYIDFNAGNIAKQLLNQFEGFSPLITNEIVSRRQFMTSSTLPEAFDEVMAETKLPPTPIFHKNHETGKEDFYFIKLNQFNDDTVTYDSLNDLLDRFYDARGERERVKQRANDLVRFVQQQLHKYQNKLAKLIEEYEQSKNKDTEQLYGELITANIYRIKQGDKEVTALNYYTNEEVVIPLNPTKSPSANAQYYYKQYNRMKTRERELQHQIQLTKDNIDYFSTIEQQLHHISVHDIDEIRDELAEQGFMKQRKNQTKKKKAQ	not soluble
MAYFMTDVTKENRQDECRFSPNKEATEEDLLRIGVECTKVNFDDEHVQEDLDRLIKKYDMNFHDEVHICRATMPNFDEKLDIFFEEHLHDDAELRVIKHGVGFFDVRTKDEAWIRIPVRRGDFVFLPAGIYHRFTTDPSEDVVALRLFRNNPKWTAFNRKADGDEQRVRQQYLNDISA	soluble
